# Measured values from US20060142193.
# T1: serum response factor (SRF), P11831
# T1 chain: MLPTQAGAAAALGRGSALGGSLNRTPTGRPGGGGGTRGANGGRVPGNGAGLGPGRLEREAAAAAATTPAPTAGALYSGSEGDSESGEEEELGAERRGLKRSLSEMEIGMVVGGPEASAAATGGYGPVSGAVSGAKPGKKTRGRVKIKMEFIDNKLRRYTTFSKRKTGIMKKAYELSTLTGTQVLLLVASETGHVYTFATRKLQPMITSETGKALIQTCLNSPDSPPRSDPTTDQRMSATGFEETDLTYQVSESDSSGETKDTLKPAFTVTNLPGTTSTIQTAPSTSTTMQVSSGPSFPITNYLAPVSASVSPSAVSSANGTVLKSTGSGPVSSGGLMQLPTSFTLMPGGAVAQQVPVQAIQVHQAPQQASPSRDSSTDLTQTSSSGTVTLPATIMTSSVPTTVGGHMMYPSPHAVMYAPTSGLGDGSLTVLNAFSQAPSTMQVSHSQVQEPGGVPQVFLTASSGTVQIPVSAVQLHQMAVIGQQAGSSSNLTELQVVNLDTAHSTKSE
# Biological target: T1, serum response factor (SRF), P11831
protein,measurement,value
ROCK1Δ1 (C-terminally truncated mutant (1-1080) of ROCK1) (protein) MSTGDSFETRFEKMDNLLRDPKSEVNSDCLLDGLDALVYDLDFPALRKNKNIDNFLSRYKDTINKIRDLRMKAEDYEVVKVIGRGAFGEVQLVRHKSTRKVYAMKLLSKFEMIKRSDSAFFWEERDIMAFANSPWVVQLFYAFQDDRYLYMVMEYMPGGDLVNLMSNYDVPEKWARFYTAEVVLALDAIHSMGFIHRDVKPDNMLLDKSGHLKLADFGTCMKMNKEGMVRCDTAVGTPDYISPEVLKSQGGDGYYGRECDWWSVGVFLYEMLVGDTPFYADSLVGTYSKIMNHKNSLTFPDDNDISKEAKNLICAFLTDREVRLGRNGVEEIKRHLFFKNDQWAWETLRDTVAPVVPDLSSDIDTSNFDDLEEDKGEEETFPIPKAFVGNQLPFVGFTYYSNRRYLSSANPNDNRTSSNADKSLQESLQKTIYKLEEQLHNEMQLKDEMEQKCRTSNIKLDKIMKELDEEGNQRRNLESTVSQIEKEKMLLQHRINEYQRKAEQENEKRRNVENEVSTLKDQLEDLKKVSQNSQLANEKLSQLQKQLEEANDLLRTESDTAVRLRKSHTEMSKSISQLESLNRELQERNRILENSKSQTDKDYYQLQAILEAERRDRGHDSEMIGDLQARITSLQEEVKHLKHNLEKVEGERKEAQDMLNHSEKEKNNLEIDLNYKLKSLQQRLEQEVNEHKVTKARLTDKHQSIEEAKSVAMCEMEKKLKEEREAREKAENRVVQIEKQCSMLDVDLKQSQQKLEHLTGNKERMEDEVKNLTLQLEQESNKRLLLQNELKTQAFEADNLKGLEKQMKQEINTLLEAKRLLEFELAQLTKQYRGNEGQMRELQDQLEAEQYFSTLYKTQVKELKEEIEEKNRENLKKIQELQNEKETLATQLDLAETKAESEQLARGLLEEQYFELTQESKKAASRNRQEITDKDHTVSRLEEANSMLTKDIEILRRENEELTEKMKKAEEEYKLEKEEEISNLKAAFEKNINTERTLKTQAVNKLAEIMNRKDFKIDRKKANTQDLRKKEKENRKLQLELNQEREKFNQMVVKHQKELNDMQAQLVEECAHRNELQMQL,level of full-length SRF after incubation with active caspase 3 in the presence or absence of ROCK1Δ1,The full-length level was markedly decreased in the presence of active ROCK1
